Series [1] concerns the molecule itself. Description: negative stain EM.
Series [2] deals with the molecule itself. The experiment in a line: cryo-EM structure.

We go through 2 proteins from publication doi:10.1101/2020.08.19.257774 (bioRxiv, 2020).

B1: Synechocystis LPOR (enzyme, UniProt Q59987 1-322, looked up)
chain: MEQPMKPTVIITGASSGVGLYGAKALIDKGWHVIMACRNLDKTQKVADELGFPKDSYTIIKLDLGYLDSVRRFVAQFRELGRPLKALVCNAAVYFPLLDEPLWSADDYELSVATNHLGHFLLCNLLLEDLKACPDADKRLIILGTVTANSKELGGKIPIPAPPDLGNFEGFEAGFKKPIAMINNKKFKSGKAYKDSKLCNMLTTRELHRRFHQETGIVFNSLYPGCVADTPLFRNHYSLFRTIFPWFQKNVTKGYVSQELAGERVAMVVADDKFKDSGVHWSWGNRQQAGREAFVQELSEQGSDAQKAQRMWDLSEKLVGLV
For the protein B1, the binding result in series [1] is reported as “binds”.

B2: A. thaliana Light-dependent Protochlorophyllide OxidoReductase isoform B (AtPORB) (enzyme)
chain: QTAATSSPTVTKSVDGKKTLRKGNVVVTGASSGLGLATAKALAETGKWNVIMACRDFLKAERAAKSVGMPKDSYTVMHLDLASLDSVRQFVDNFRRTETPLDVLVCNAAVYFPTAKEPTYSAEGFELSVATNHLGHFLLARLLLDDLKKSDYPSKRLIIVGSITGNTNTLAGNVPPKANLGDLRGLAGGLNGLNSSAMIDGGDFDGAKAYKDSKVCNMLTMQEFHRRFHEETGVTFASLYPGCIASTGLFREHIPLFRALFPPFQKYITKGYVSETESGKRLAQVVSDPSLTKSGVYWSWNNASASFENQLSEEASDVEKARKVWEISEKLVGLA
Turning to B2, the binding result in series [2] was “binds”.
